{"source": "paper PMC4914081", "key": {"Cac1C K577E": {"biological_target": "Cac1C K577E (budding yeast, UniProt Q12495 520-606, K577E)", "sequence (Q12495 520-606 K577E)": "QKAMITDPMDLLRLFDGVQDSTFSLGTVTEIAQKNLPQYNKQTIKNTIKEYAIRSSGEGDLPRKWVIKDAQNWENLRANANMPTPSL", "assay": "EMSA"}, "Cac1C K553E": {"biological_target": "Cac1C K553E (budding yeast, UniProt Q12495 520-606, K553E)", "sequence (Q12495 520-606 K553E)": "as the sequence (Q12495 520-606 K577E) above, with K34E, E58K counted along it", "assay": "EMSA"}, "Cac1C K583E": {"biological_target": "Cac1C K583E (budding yeast, UniProt Q12495 520-606, K583E)", "sequence (Q12495 520-606 K583E)": "as the sequence (Q12495 520-606 K577E) above, with E58K, K64E counted along it", "assay": "EMSA"}, "Cac1C (C-terminal WHD) [1]": {"biological_target": "T1, Cac1C (C-terminal WHD) (budding yeast, UniProt Q12495 520-606)", "T1 sequence (Q12495 520-606)": "as the sequence (Q12495 520-606 K577E) above, with E58K counted along it", "assay": "EMSA"}, "Mmp150C": {"biological_target": "T2, Mmp150C (mouse, UniProt Q9QWF0 706-827)", "T2 sequence": "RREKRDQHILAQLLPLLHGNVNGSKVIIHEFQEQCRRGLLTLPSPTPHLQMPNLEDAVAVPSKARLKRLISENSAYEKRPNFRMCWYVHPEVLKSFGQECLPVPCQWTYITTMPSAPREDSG", "assay": "EMSA"}, "Hsp150C": {"biological_target": "Hsp150C (human, UniProt Q13111 727-854)", "sequence (Q13111 727-854)": "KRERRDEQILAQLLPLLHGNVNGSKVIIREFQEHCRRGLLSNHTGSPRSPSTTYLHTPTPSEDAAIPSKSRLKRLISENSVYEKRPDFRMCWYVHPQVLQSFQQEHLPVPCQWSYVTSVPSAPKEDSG", "assay": "EMSA"}, "Mmp150C 4KE": {"biological_target": "T3, Mmp150C 4KE (mouse, UniProt Q9QWF0 706-827, K768E;R770E;K772E;R773E)", "T3 sequence": "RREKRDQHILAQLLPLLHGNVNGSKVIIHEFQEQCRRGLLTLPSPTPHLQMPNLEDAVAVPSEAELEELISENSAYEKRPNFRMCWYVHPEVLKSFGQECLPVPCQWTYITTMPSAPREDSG", "assay": "EMSA"}, "[2]": {"biological_target": "Cac1 (in CAF-1);GST-Cac2;Cac3 (budding yeast (Saccharomyces …, UniProt Q12495;Q04199;P13712 91-606;1-438;1-422, ||))", "sequence (Q12495 91-606, chain 1 of 3)": "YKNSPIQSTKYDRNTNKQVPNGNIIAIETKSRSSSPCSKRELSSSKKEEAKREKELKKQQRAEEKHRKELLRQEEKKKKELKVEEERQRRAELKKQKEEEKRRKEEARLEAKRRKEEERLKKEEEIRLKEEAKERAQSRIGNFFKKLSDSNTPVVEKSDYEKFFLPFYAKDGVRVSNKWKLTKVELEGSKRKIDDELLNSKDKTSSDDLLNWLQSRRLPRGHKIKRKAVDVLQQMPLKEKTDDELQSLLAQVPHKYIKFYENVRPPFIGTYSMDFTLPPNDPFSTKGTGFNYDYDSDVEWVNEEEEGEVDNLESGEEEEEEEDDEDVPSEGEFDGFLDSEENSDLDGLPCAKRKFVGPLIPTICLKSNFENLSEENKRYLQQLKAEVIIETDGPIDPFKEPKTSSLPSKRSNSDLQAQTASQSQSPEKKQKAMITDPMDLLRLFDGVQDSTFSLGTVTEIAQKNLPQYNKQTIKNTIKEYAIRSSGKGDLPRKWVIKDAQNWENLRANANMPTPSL", "sequence (Q04199 1-438, chain 2 of 3)": "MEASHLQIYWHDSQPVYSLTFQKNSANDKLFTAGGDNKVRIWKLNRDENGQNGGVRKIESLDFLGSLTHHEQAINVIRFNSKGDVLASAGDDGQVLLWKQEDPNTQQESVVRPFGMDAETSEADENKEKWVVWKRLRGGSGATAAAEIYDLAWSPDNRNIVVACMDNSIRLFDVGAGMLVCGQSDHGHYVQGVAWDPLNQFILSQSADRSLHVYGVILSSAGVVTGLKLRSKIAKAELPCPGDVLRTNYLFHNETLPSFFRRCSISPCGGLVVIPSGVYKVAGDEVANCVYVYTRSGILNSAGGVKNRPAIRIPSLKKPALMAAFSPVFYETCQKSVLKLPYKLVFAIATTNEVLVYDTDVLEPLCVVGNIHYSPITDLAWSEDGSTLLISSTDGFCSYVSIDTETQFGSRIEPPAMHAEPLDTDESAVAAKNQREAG", "sequence (P13712 whole entry, chain 3 of 3)": "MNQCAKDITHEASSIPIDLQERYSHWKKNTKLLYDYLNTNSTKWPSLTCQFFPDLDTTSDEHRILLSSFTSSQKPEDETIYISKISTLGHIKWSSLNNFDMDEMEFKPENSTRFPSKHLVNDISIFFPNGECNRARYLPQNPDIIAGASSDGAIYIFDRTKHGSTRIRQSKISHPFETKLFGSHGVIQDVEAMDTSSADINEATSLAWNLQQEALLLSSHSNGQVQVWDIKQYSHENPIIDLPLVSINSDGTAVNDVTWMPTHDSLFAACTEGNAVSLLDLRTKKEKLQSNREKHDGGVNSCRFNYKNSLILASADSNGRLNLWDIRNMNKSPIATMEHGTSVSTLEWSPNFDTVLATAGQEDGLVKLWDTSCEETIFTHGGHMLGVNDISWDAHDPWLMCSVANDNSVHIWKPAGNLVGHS", "assay": "pull-down"}, "Cac1C (C-terminal WHD) [3]": {"biological_target": "T1, Cac1C (C-terminal WHD)", "assay": "pull-down"}, "GST-Cac2": {"biological_target": "GST-Cac2 (budding yeast, UniProt Q04199 1-438)", "sequence (Q04199 1-438)": "as the sequence (Q04199 1-438, chain 2 of 3) above", "assay": "pull-down"}, "Cac1C (C-terminal WHD) [4]": {"biological_target": "T1, Cac1C (C-terminal WHD)", "assay": "EMSA", "remark": "listed apart in the source"}, "Cac1C (C-terminal WHD) [5]": {"biological_target": "T1, Cac1C (C-terminal WHD)", "assay": "EMSA", "remark": "listed apart in the source"}, "Cac1C (C-terminal WHD) [6]": {"biological_target": "T1, Cac1C (C-terminal WHD)", "assay": "EMSA", "remark": "listed apart in the source"}}}
{"binder": "58 bp (dsDNA) DNA 1: ATACATTTTATGACTGGAAACTTTTTTGTACAACACTCCAATAAACATTTTGATTTTA DNA 2: TAAAATCAAAATGTTTATTGGAGTGTTGTACAAAAAAGTTTCCAGTCATAAAATGTAT", "values": [{"measurement": "binding result", "setting": "Cac1C K577E", "value": "binds"}, {"measurement": "binding result", "setting": "Cac1C K553E", "value": "binds"}, {"measurement": "binding result", "setting": "Cac1C K583E", "value": "binds"}, {"measurement": "binding result", "setting": "Cac1C (C-terminal WHD) [1]", "value": "binds"}, {"measurement": "binding result", "setting": "Mmp150C", "value": "binds"}, {"measurement": "binding result", "setting": "Hsp150C", "value": "binds"}, {"measurement": "binding result", "setting": "Mmp150C 4KE", "value": "no binding"}]}
{"binder": "58 bp biotinylated (dsDNA, biotin on one strand) DNA 1: ATACATTTTATGACTGGAAACTTTTTTGTACAACACTCCAATAAACATTTTGATTTTA DNA 2: TAAAATCAAAATGTTTATTGGAGTGTTGTACAAAAAAGTTTCCAGTCATAAAATGTAT", "values": [{"measurement": "binding result", "setting": "[2]", "value": "binds"}, {"measurement": "binding result", "setting": "Cac1C (C-terminal WHD) [3]", "value": "binds"}, {"measurement": "binding result", "setting": "GST-Cac2", "value": "no binding"}]}
{"binder": "AT-rich (dsDNA) DNA 1: ATAATCGATATT DNA 2: AATATCGATTAT", "values": [{"measurement": "binding result", "setting": "Cac1C (C-terminal WHD) [4]", "value": "binds"}]}
{"binder": "GC-rich (dsDNA) DNA 1: ATCGCCCGCGCA DNA 2: TGCGCGGGCGAT", "values": [{"measurement": "binding result", "setting": "Cac1C (C-terminal WHD) [5]", "value": "binds"}]}
{"binder": "CAACAAAACCCCAACCCCAAACCACACC (ssDNA)", "note": "[ssDNA]", "values": [{"measurement": "binding result", "setting": "Cac1C (C-terminal WHD) [6]", "value": "binds"}]}
